In patent publication CN115028723A (dated 2022):

Target: T1, 重组人IL-1β (novoprotein, CG93) (human, UniProt P01584 117-269)
T1 construct: The supplier is stated for the immunogen; also called rHuman IL-1β; hIL-1β
Assay: Biacore SPR, antibody captured on Protein A chip, IL-1β as analyte, 1:1 Langmuir fit

Kd: 15.3 pM
koff: 6.01e-05 s⁻¹
kon: 3.93e+06 M⁻¹ s⁻¹
B1: 阳性对照抗体CAN (卡纳单抗, Canakinumab) (antibody, human IgG1, kappa, V domains shown)
VH: QVQLVESGGGVVQPGRSLRLSCAASGFTFSVYGMNWVRQAPGKGLEWVAIIWYDGDNQYYADSVKGRFTISRDNSKNTLYLQMNGLRAEDTAVYYCARDLRTGPFDYWGQGTLVTVSS
VL: EIVLTQSPDFQSVTPKEKVTITCRASQSIGSSLHWYQQKPDQSPKLLIKYASQSFSGVPSRFSGSGSGTDFTLTINSLEAEDAAAYYCHQSSSLPFTFGPGTKVDIKR
notes: Signal peptide added for expression is left out; also called Ilaris
